Experimental data taken from the Immune Epitope Database (IEDB).

Legend:
HLA-A*23:01 = assay: IEDB peptide-MHC binding, purified MHC/competitive/radioactivity; filed as Kd, often an IC50 or EC50 that approximates it; ≥ and ≤ were set here for values at or beyond the usual limits of such assays
HLA-A*29:02 = assay: as above
HLA-A*24:02 = assay: as above
HLA-A*30:02 = assay: as above
HLA-A*26:01 = assay: as above
HLA-A*01:01 = assay: as above
HLA-A*32:01 = assay: as above
HLA-B*08:01 = assay: as above; details: source organism: Vaccinia virus WR
HLA-B*44:02 = assay: IEDB peptide-MHC binding, purified MHC/direct/fluorescence; filed as Kd, often an IC50 or EC50 that approximates it; ≥ and ≤ were set here for values at or beyond the usual limits of such assays
HLA-B*18:01 = assay: as above
HLA-A*11:01 = assay: IEDB peptide-MHC binding, purified MHC/competitive/radioactivity; filed as Kd, often an IC50 or EC50 that approximates it; ≥ and ≤ were set here for values at or beyond the usual limits of such assays; details: source organism: Triticum aestivum
HLA-A*33:01 = assay: as above; details: source organism: Triticum aestivum
HLA-A*68:01 = assay: as above; details: source organism: Triticum aestivum
HLA-A*31:01 = assay: as above; details: source organism: Triticum aestivum
HLA-A*03:01 = assay: as above; details: source organism: Triticum aestivum
HLA-B*40:01 = assay: IEDB peptide-MHC binding, purified MHC/direct/fluorescence; filed as Kd, often an IC50 or EC50 that approximates it; ≥ and ≤ were set here for values at or beyond the usual limits of such assays; details: source organism: Amur virus
[1] = source organism: SARS coronavirus Tor2
[2] = source organism: Mammarenavirus juninense
[3] = source organism: Vaccinia virus WR
[4] = source organism: Mammarenavirus lassaense
[5] = source organism: Lymphocytic choriomeningitis virus (strain Armstrong)
[6] = source organism: Mammarenavirus machupoense
[7] = source organism: Triticum aestivum
[8] = source organism: Mammarenavirus guanaritoense
[9] = source organism: Dengue virus 2 Jamaica/1409/1983

LYEQVVMDY gave a Kd (HLA-A*23:01; [1]) of at least 58.2 µM, a Kd (HLA-A*29:02; [1]) of 0.0122 µM and a Kd (HLA-A*24:02; [1]) of at least 40.5 µM. The Kd (HLA-A*30:02; [1]) was 0.173 µM, the Kd (HLA-A*26:01; [1]) was at least 22.6 µM and the Kd (HLA-A*01:01; [1]) was 15.1 µM.
For MLMLVNDRLL, the Kd (HLA-A*23:01; [2]) was 11.4 µM, the Kd (HLA-A*29:02; [2]) was at least 20 µM and the Kd (HLA-A*24:02; [2]) was at least 70.3 µM.
With MLMNHVANF the Kd (HLA-A*32:01; [3]) was 0.00828 µM and the Kd (HLA-B*08:01) was 0.00333 µM.
For MTNTMRNAI, the Kd (HLA-A*32:01; [3]) was 0.106 µM.
PEDPVEVALY gave a Kd (HLA-A*23:01; [4]) of at least 70 µM, a Kd (HLA-A*29:02; [4]) of at least 43.4 µM and a Kd (HLA-A*24:02; [4]) of at least 70.3 µM. It also gave a Kd (HLA-A*30:02; [4]) of 1.43 µM, a Kd (HLA-A*26:01; [4]) of at least 69.7 µM and a Kd (HLA-A*01:01; [4]) of at least 41 µM.
QEGAMHTAL gave a Kd (HLA-B*44:02; source organism: Dengue virus) of 6.66 µM and a Kd (HLA-B*18:01; source organism: Dengue virus) of 0.0395 µM.
In the case of QMYKTPTLKY, the Kd (HLA-A*23:01; [1]) is reported as at least 70 µM, the Kd (HLA-A*29:02; [1]) is reported as 0.00681 µM and the Kd (HLA-A*24:02; [1]) is reported as at least 70.3 µM. It also gave a Kd (HLA-A*30:02; [1]) of 0.0552 µM, a Kd (HLA-A*26:01; [1]) of 3.12 µM and a Kd (HLA-A*01:01; [1]) of 8.92 µM.
For QYLIIQNRTW, the Kd (HLA-A*23:01; [5]) was 0.0574 µM, the Kd (HLA-A*29:02; [5]) was 0.687 µM and the Kd (HLA-A*24:02; [5]) was 0.693 µM.
In the case of RCWLIRNGSY, the Kd (HLA-A*23:01; [6]) is reported as at least 34.7 µM, the Kd (HLA-A*29:02; [6]) is reported as 4.81 µM and the Kd (HLA-A*24:02; [6]) is reported as at least 70.3 µM. The Kd (HLA-A*30:02; [6]) was 0.0161 µM, the Kd (HLA-A*26:01; [6]) was at least 69.7 µM and the Kd (HLA-A*01:01; [6]) was at least 37.7 µM.
Sequence RMLLNRFTM has a Kd (HLA-A*32:01; source organism: Dengue virus 1 Brazil/97-11/1997) of 0.0194 µM.
SFQQPQQQY was tested, and the Kd (HLA-A*23:01; [7]) was at least 77.8 µM, the Kd (HLA-A*11:01) was at least 77.9 µM and the Kd (HLA-A*33:01) was at least 77.7 µM. The Kd (HLA-A*29:02; [7]) was 0.0841 µM, the Kd (HLA-A*24:02; [7]) was at least 77.6 µM and the Kd (HLA-A*30:02; [7]) was at least 63.2 µM. It also gave a Kd (HLA-A*68:01) of at least 77.7 µM, a Kd (HLA-A*26:01; [7]) of at least 43.7 µM and a Kd (HLA-A*31:01) of at least 77.9 µM. It also gave a Kd (HLA-A*03:01) of at least 78 µM and a Kd (HLA-A*01:01; [7]) of at least 68.9 µM.
In the case of SMSEIINNI, the Kd (HLA-A*32:01; [3]) is reported as 0.245 µM.
SRAWNVWEVE gave a Kd (HLA-A*32:01; source organism: Dengue virus 3 Martinique/1243/1999) of at least 26.5 µM.
Work on SWLDFDEKLV yielded a Kd (HLA-A*23:01; [8]) of 0.32 µM, a Kd (HLA-A*29:02; [8]) of at least 71.4 µM and a Kd (HLA-A*24:02; [8]) of 14 µM. The Kd (HLA-A*30:02; [8]) was 4.94 µM, the Kd (HLA-A*26:01; [8]) was at least 69.7 µM and the Kd (HLA-A*01:01; [8]) was 6.1 µM.
TSQKSIVAY was tested, and the Kd (HLA-A*23:01; [1]) was at least 77.8 µM, the Kd (HLA-A*29:02; [1]) was 2.08 µM and the Kd (HLA-A*24:02; [1]) was at least 77.6 µM. It also gave a Kd (HLA-A*30:02; [1]) of 0.0254 µM, a Kd (HLA-A*26:01; [1]) of 8.25 µM and a Kd (HLA-A*01:01; [1]) of 1.18 µM.
With VGRAWENTI the Kd (HLA-A*23:01; [4]) was 2.95 µM, the Kd (HLA-A*29:02; [4]) was at least 78.9 µM and the Kd (HLA-A*24:02; [4]) was 8.77 µM. For the same sequence, the Kd (HLA-A*30:02; [4]) was 0.0991 µM, the Kd (HLA-A*26:01; [4]) was at least 77.9 µM and the Kd (HLA-A*01:01; [4]) was at least 26.7 µM.
For VYIGDPAQL, the Kd (HLA-A*23:01; [1]) was 1.18 µM, the Kd (HLA-A*29:02; [1]) was at least 22.8 µM and the Kd (HLA-A*24:02; [1]) was 0.107 µM. For the same sequence, the Kd (HLA-A*30:02; [1]) was at least 78.9 µM, the Kd (HLA-A*26:01; [1]) was at least 77.9 µM and the Kd (HLA-A*01:01; [1]) was at least 78.1 µM.
Sequence WCEFVDFSV has a Kd (HLA-A*23:01; [8]) of at least 53.3 µM, a Kd (HLA-A*29:02; [8]) of 2.47 µM and a Kd (HLA-A*24:02; [8]) of at least 77.5 µM. For the same sequence, the Kd (HLA-A*30:02; [8]) was 7.9 µM, the Kd (HLA-A*26:01; [8]) was at least 77.9 µM and the Kd (HLA-A*01:01; [8]) was 0.341 µM.
For WYAQIQPHW, the Kd (HLA-A*23:01; [9]) was 0.0621 µM and the Kd (HLA-A*24:02; [9]) was 0.0243 µM.
YECETYKEL gave a Kd (HLA-B*44:02; source organism: Amur virus) of at least 20 µM, a Kd (HLA-B*18:01; source organism: Amur virus) of 0.0053 µM and a Kd (HLA-B*40:01) of 0.0148 µM.
For YEEFCNAVY, the Kd (HLA-A*23:01; [4]) was 10.1 µM, the Kd (HLA-A*29:02; [4]) was 0.426 µM and the Kd (HLA-A*24:02; [4]) was at least 77.5 µM. The Kd (HLA-A*30:02; [4]) was 0.762 µM, the Kd (HLA-A*26:01; [4]) was at least 77.9 µM and the Kd (HLA-A*01:01; [4]) was 5.37 µM.
